The results in this text go back to patent US20140112919A1.

In test [1] the target is recombinant human IL-10 (human) (UniProt P22301).
Test [2] has the same target. The experiment in a line: KinExA, mean (n). (A kinetic exclusion assay measures how much of one partner remains free in solution.)
For test [3], the target named is recombinant cyno IL-10 (cyno) (UniProt P79338). Nature of the test: Biacore, mean ± S.D. (n); format not described. (In general: In SPR one partner is held on a chip, and binding of the other changes the refractive index at the surface.)
recombinant cyno IL-10 (cyno), sequence (P79338 19-178 limits assumed): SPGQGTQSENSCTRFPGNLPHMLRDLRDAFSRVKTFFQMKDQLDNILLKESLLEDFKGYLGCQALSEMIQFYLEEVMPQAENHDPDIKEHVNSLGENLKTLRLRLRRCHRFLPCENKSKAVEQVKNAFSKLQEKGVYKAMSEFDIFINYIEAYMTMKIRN
Test [4] has as its target recombinant human IL-10 (human) (UniProt P22301). Nature of the test: Biacore, mean ± S.D. (n); format not described.
Test [5] has as its target T1, recombinant mouse IL-10 (mouse) (UniProt P18893).
T1 sequence: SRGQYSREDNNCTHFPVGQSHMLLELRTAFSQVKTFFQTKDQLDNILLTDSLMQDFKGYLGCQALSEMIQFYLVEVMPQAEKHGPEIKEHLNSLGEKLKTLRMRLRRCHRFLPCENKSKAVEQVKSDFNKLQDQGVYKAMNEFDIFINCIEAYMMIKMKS
Nature of the test: Biacore, mean ± S.D. (n); format not described.

Test [6] deals with rat anti hIL-10 mAb 12G8. The experiment in a line: competitive ECLA (IGEN): unlabeled IL-10 titrated against hIL-10-biotin for binding to rat 12G8.

Usually Kd stands for the constant that tells how readily two partners part at equilibrium. The term IC50 denotes the midpoint of a concentration-inhibition curve. High values mean a need for much substance, low ones inhibition by little substance.

B1: rat anti hIL-10 mAb 12G8 (antibody, from a related filing, V domains shown)
VH: EVQLVESGGGLVRPGGSLRLSCTASGFTFSDYHMAWVRQSPDKGLEWVASITLDATYTYYRDSVRGRFTISRNNAKTTLYLQMDSLRSEDTATFYCTRHRGFSVWLDYWGQGVMVTVSS
VL: DIQMTQSPSLLSASVGDRVTLNCKTSQNIFENLAWYQQKLREPPKLLIFNASPLQAGIPSRFSGSGSGTDFTLTITSLQPEDVATYFCHQYYSGYTFGPGTKLELKR
Consider B1, for which, in test [1], the Bioassay IC50(pM) was 66 pM. The dissociation constant Kd in test [2] stood at 0.023 nM; in test [3], 0.33 nM; in test [4], 0.277 nM; in test [5], 7.4 nM.

B2: recombinant mouse IL-10 (ligand)
chain: T1 sequence
For B2, in test [6], the concentration for half-maximal inhibition (IC50) turned out to be 37.9 nM.

B3: humanized anti-human IL-10 antibody SCH 708980 (12G8) (antibody, V domains shown)
VH: QVQLVESGGGVVQPGRSLRLSCAASGFTFSDYHMAWVRQAPGKGLEWVASITLDATYTYYRDSVRGRFTISRDNSKNTLYLQMNSLRAEDTAVYYCARHRGFSVWLDYWGQGTLVTVSS
VL: DIQMTQSPSSLSASVGDRVTITCKTSQNIFENLAWYQQKPGKAPKLLIYNASPLQAGVPSRFSGSGSGTDFTLTISSLQPEDFATYYCHQYYSGYTFGPGTKLELKR
Regarding B3, the Bioassay IC50(pM) in test [1] was 93 pM.
